In publication PMC2924879:
Read-outs that look alike come from different tables or passages of the source.

Key:
Experiment in all cases: AUC
[1] = target: vMIP-II L13F (human herpesvirus-8)
[2] = target: vMIP-II L13F (human herpesvirus-8); remark: listed apart in the source
[3] = target: vMIP-II L13F (human herpesvirus-8); remark: listed apart in the source

Substance: vMIP-II L13F (natural protein)
- Kd [1]: 129 µM
- Kd [2]: 41 µM
- stoichiometry N [2]: 2
- Kd [3]: 0.74 µM
